This note sets out measurements from paper PMC6614801.

The assay concerns the target T1, SuhB (inositol mono-phosphatase SuhB), wild type (E. coli), P0ADG4.
T1 chain: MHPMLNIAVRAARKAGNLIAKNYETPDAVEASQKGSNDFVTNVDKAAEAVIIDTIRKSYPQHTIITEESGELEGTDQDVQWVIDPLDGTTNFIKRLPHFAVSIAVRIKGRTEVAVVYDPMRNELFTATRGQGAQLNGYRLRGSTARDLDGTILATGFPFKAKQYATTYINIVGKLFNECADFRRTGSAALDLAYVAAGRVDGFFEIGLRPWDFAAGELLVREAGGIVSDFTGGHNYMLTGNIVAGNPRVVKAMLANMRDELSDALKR
Nature of the assay: SEC-MALS; 60 μl (15 nmol) of SuhB on Superdex 200 increase 10/300; 20 mM HEPES pH 7.5, 50 mM NaCl, 0.02% (w/v) NaN3. Conditions: remark: other sources report otherwise. (Size exclusion chromatography separates by hydrodynamic size, large species first.)

B1: SuhB (inositol mono-phosphatase SuhB), wild type, P0ADG4 1-267 (natural protein)
chain: T1 chain
On to B1, for which the stoichiometry N (in general, the number of molecules, sites or subunits per partner or assembly) is 2.
